# Results published in patent US20160287696A1, “PAN POLLEN IMMUNOGENS AND METHODS AND USES FOR IMMUNE RESPONSE MODULATION” (LA JOLLA INSTITUTE FOR ALLERGY AND IMMUNOLOGY, priority 2013, published 2016).
# B1: ovalbumin (protein, UniProt P01012 2-386, looked up)
# Ovalbumin: GSIGAASMEFCFDVFKELKVHHANENIFYCPIAIMSALAMVYLGAKDSTRTQINKVVRFDKLPGFGDSIEAQCGTSVNVHSSLRDILNQITKPNDVYSFSLASRLYAEERYPILPEYLQCVKELYRGGLEPINFQTAADQARELINSWVESQTNGIIRNVLQPSSVDSQTAMVLVNAIVFKGLWEKAFKDEDTQAMPFRVTEQESKPVQMMYQIGLFRVASMASEKMKILELPFASGTMSMLVLLPDEVSGLEQLESIINFEKLTEWTSSNVMEERKIKVYLPRMKMEEKYNLTSVLMAMGITDVFSSSANLSGISSAESLKISQAVHAAHAEINEAGREVVGSAEAGVDAASVSEEFRADHPFLFCIKHIATNAVLFFGRCVSP
# notes: unrelated protein ovalbumin used as model allergen
# B2: NTGA 86/51: Phl p wild type full length protein from which PG+ peptides of NTGA's 86 and 51 derive (protein)
# chain: MSPAEPTREESVYMAKLAEQAERYEEMVEFMERVAKATGGAGPGEELSVEERNLLSVAYKNVIGARRASWRIISSIEQKEEGRGNDAHATTIRSYRSKIEAELAKICDGILALLDSHLVPSAGAAESKVFYLKMKGDYHRYLAEFKSGAERKEAAESTMNSYKAAQDIALADLAPTHPIRLGLALNFSVFYYEILNSPDRACNLAKQAFDEAISELDSLGEESYKDSTLIMQLLRDNLTLWTSDTNEDGGDEIKEAPAPKESGD
# modifications: Phleum Pratense
# notes: Phl p wild type full length protein from which PG+ peptides of NTGA's 86 and 51 derive
# B3: NTGA 6: Phl p wild type sequence, Table 2 (protein)
# chain: MADEKLAKLREAVAGLPQISDNEKSGFISLVSRYLSGEEEHIEWPKIHTPTDEVVVPYDTVDAPPEDLEATKALLDKLAVLKLNGGLGTTMGCTGPKSVIEVRNGFTFLDLIVLQIESLNKKYGSNVPLLLMNSFNTHEDTLKIVEKYANSSIDIHTFNQSQYPRVVADEFLPWPSKGKTDKDGWYPPGHGDIFPSLMNSGKLDLLLSQGKEYVFIANSDNLGAIVDMKILNHLIHKQNEYCMEVTPKTLADVKGGTLISYEGRVQLLEIAQVPDAHVDEFKSIEKFKIFNTNNLWVNLKAIKRLVEADALKMEIIPNPKEVDGVKVLQLETAAGAAIRFFDHAIGINVPRSRFLPVKATSDLQLVQSDLYTLVDGFVTRNSARTDPSNPSIELGPEFKKVGSFLGRFKSIPSIVELDSLKVSGDVWFGSGIVLKGKVTITAKPGVKLEIPDGAVLENKDINGAEDL
# modifications: Phleum Pratense
# Columns and labels:
# splenocytes [1] = assay: Bystander tolerance induction by prophylactic SLIT in mice, IP sensitization with NTGA 86/51 together with OVA; format: in vivo; details: for NTGA 86/51 specific in vitro proliferation of splenocytes vs buffer treated mice: FIG. 4
# Text: Bystander tolerance induction by prophylactic SLIT treatment with A0086 (FIG. 4). The ability of NTGA 86/51 to induce bystander tolerance, i.e. to induce tolerance against a non-related protein was investigated by SLIT treating the mice for two weeks with NTGA 86/51 followed by an IP sensitization with NTGA 86/51 together with the unrelated protein ovalbumin (OVA). Following this splenocytes were stimulated in vitro either with NTGA 86/51to confirm the ability of this protein to induce tolerance towards itself, or with OVA to investigate if NTGA 86/51 can induce bystander tolerance towards an unrelated protein.
# splenocytes [2] = assay: Sensitization pattern: in vitro proliferation (3H-thymidine) of splenocytes of mice sensitized to Phl p extract; format: cell-based, BALB/c mice; details: mice sensitized IP with Phl p extract; 6 days stimulation
# Text: Initially, the sensitization pattern of an immunogen of the invention (NTGA 86/51) was investigated in BALB/c mice sensitized to Phl p extract (FIG. 2). For the purposes of these studies, the immunogen were expressed in E. Coli using standard expression protocols.
# Mice were sensitized by one intraperitoneal injection with Phl p extract adsorbed to aluminium hydroxide. Eleven days later the mice were euthanized and splenocytes were stimulated in vitro with Phl p extract, Phl p 1, Phl p 5, NTGA 86/51. The cells were incubated for 6 days at 37° C. under 5% CO2 and incorporated 3H-thymidine was counted and used as a measure for T cell proliferation.
# splenocytes [3] = assay: Prophylactic SLIT tolerance induction in mice, splenocyte proliferation; format: in vivo, BALB/c mice; details: prophylactic SLIT two weeks; for tolerance towards the immunogen itself (proliferation of splenocytes vs buffer (sham) treated mice): FIG. 3A / 3C
# Text: Then the tolerance induction of NTGA 86/51 was investigated in a prophylactic mice model using sublingual administration (FIG. 3)
# The ability of NTGA 86/51 and NTGA 6 to induce prophylactic tolerance was investigated by SLIT treating naive BALB/c mice with NTGA 86/51 or NTGA 6 for two weeks (Monday-Friday) followed by one Phl p extract sensitization or sensitization to the immunogen itself (NTGA 86/51 or NTGA 6) as described above. Eleven days after the sensitization, splenocytes were harvested and stimulated in vitro with NTGA 86/51 as well as Phl p extract.
# [4] = test system: cultured PBMCs of the allergic donors; assay: ELISPOT of IL-5 or IFNg production by cultured PBMCs of TG allergic donors in response to peptide; format: cell-based, human; details: for NTGA's containing at least one T cell epitope, Th+ (Col 2): NTGA number given = criterion met, TG allergic donors n=20
# Procedure, shortened: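 Counts of responding donors among 20 TG-allergic subjects, judged by ELISPOT for IL-5 or IFNg (positive: minimum 20 SFCs/10^6 PBMCs, stimulation index 2 or more, P .05). Cells were pre-expanded with TG pollen extract or peptide pool, then stimulated at 1×10^5/well with 10 μg/mL peptide.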
molecule,measurement,setting,value
B1,NTGA 86/51 specific in vitro proliferation of splenocytes vs buffer treated mice,splenocytes [1],able to downregulate
B2,NTGA 86/51 specific in vitro proliferation of splenocytes vs buffer treated mice,splenocytes [1],reduced proliferation
same,OVA specific in vitro proliferation of splenocytes vs buffer treated mice (bystander tolerance),splenocytes [1]; FIG. 4B,decreased
same,in vitro T-cell response (splenocyte proliferation) compared to the response to Phl p 5,splenocytes [2],much weaker
same,in vitro T-cell response (splenocyte proliferation) compared to the response towards the Phl p extract,splenocytes [2],much weaker
same,tolerance towards the immunogen itself (proliferation of splenocytes vs buffer (sham) treated mice),splenocytes [3],capable of inducing tolerance towards the immunogen itself
same,tolerance towards Phl p extract (proliferation of splenocytes vs buffer (sham) treated mice),splenocytes [3]; FIG. 3B,capable of inducing tolerance
same,"NTGA's containing at least one T cell epitope, Th+ (Col 2)",[4],86/51
B3,tolerance towards the immunogen itself (proliferation of splenocytes vs buffer (sham) treated mice),splenocytes [3],capable of inducing tolerance towards itself
same,immune reactivity (SFC counts in ELISPOT) of highly conserved PG+ peptides derived from the NTGA,[4],high immune reactivity
same,"NTGA's containing at least one T cell epitope, Th+ (Col 2)",[4],6
same,No of PG+ & th+ peptides per NTGA,"[4]; Table 6, PG+ peptides recognized by T cells of grass allergic donors (n=20)",22
same,No of PP & Th+ peptides per NTGA,"[4]; Table 6, PP peptides recognized by T cells of grass allergic donors (n=20)",14
same,# Th+,"[4]; Table 7, peptides per NTGA recognized by T cells of grass allergic donors (n=20)",9
same,T cell reactivity of sequences contained in the protein,[4]; among top pan-pollen NTGA's ranked by number of PP peptides,highly T cell reactive sequences
same,PG+ peptides recognized by grass allergic donors,"[4]; n=20 grass allergic donors, PG+ peptides of the NTGA",two
